# In publication PMC11101478 (2024):
# B1: gpJ713 (C-terminal truncation of bacteriophage lambda gpJ, starting from residue 713) (domain or fragment)
# chain: APAAPSRIELTPGYFQITATPHLAVYDPTVQFEFWFSEKQIADIRQVETSTRYLGTALYWIAASINIKPGHDYYFYIRSVNTVGKSAFVEAVGRASDDAEGYLDFFKGKITESHLGKELLEKVELTEDNASRLEEFSKEWKDASDKWNAMWAVKIEQTKDGKHYVAGIGLSMEDTEEGKLSQFLVAANRIAFIDPANGNETPMFVAQGNQIFMNDVFLKRLTAPTITSGGNPPAFSLTPDGKLTAKNADISGSVNANSGTLSNVTIAENCTINGTLRAEKIVGDIVKAASAAFPRQRESSVDWPSGTRTVTVTDDHPFDRQIVVLPLTFRGSKRTVSGRTTYSMCYLKVLMNGAVIYDGAANEAVQVFSRIVDMPAGRGNVILTFTLTSTRHSADIPPYTFASDVQVMVIKKQALGISVV
# Key:
# Assay in all cases: BLI
# [1] = molecular target: E. coli LamB (E. coli, UniProt P02943 26-446)
# [2] = molecular target: E. coli LamB A384S (E. coli, UniProt P02943 26-446, A384S)
# [3] = molecular target: Shigella sonnei 3070 LamB (Shigella sonnei 3070, UniProt Q3YUU9 26-446)
binder,measurement,setting,value
B1,koff,[1],0.00427 s⁻¹
same,koff,[2],< 1e-07 s⁻¹
same,koff,[3],< 1e-07 s⁻¹
